Measured values reported in patent US20250242021A1 (BLUESPHERE BIO, published 2025).

Target: HA-1 “H” peptide (…) presented on LCL222 cells (H/H)
Assay: cell-based or functional assay

B1: anti-HA-1 “H” epitope TCR (TCR, V domains shown)
V domain 1: AQSVAQPEDQVNVAEGNPLTVKCTYSVSGNPYLFWYVQYPNRGLQFLLKYITGDNLVKGSYGFEAEFNKSQTSFHLKKPSALVSDSALYFCAVRAPTSGTYKYIFGTGTRLKVLA
V domain 2: GVSQDPRHKITKRGQNVTFRCDPISEHNRLYWYRQTLGQGPEFLTYFQNEAQLEKSRLLSDRFSAERPKGSFSTLEIQRTEQGDSAMYLCASSLVSGNEQFFGPGTRLTVLE
B1 was tested, and the “E:T ratio at which target cells were almost undetectable, cytotoxicity killing assay” value was 1.38 E:T ratio and the “EC50, cytotoxicity killing assay (E:T ratio)” value was 0.49 E:T ratio.
